# Measurements as given in the supplement of paper PMC10126150.
# ± gives the standard deviation of the averaged measurements.
# System: ATP
# Experiment: switch fluorescence ratio, 500 uM ATP over buffer (Cy3 cluster intensity, sum of 5 cycles each) (fold (ratio)); higher = stronger signal-on switching upon ATP binding; sequences stand for … in TCGTCGGCAGCGTCAGATGTGTATAAGAGACAGTTTTTTTTTTTTTTTTTTTTTTTTT…TC
# Conditions: aptamer strand: ATP DNA aptamer (quencher-CACCTGGGGGAGTATTGCGGAGGAAGG + anchor), 100 nM annealed; ATP concentration: 500 uM
# In short: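 Clusters with intensities outside 100-1000 RFU were excluded. The remaining Cy3-labelled switching-strand clusters on a modified Illumina MiSeq flow-cell had been annealed to 100 nM quencher-labelled ATP aptamer and imaged in selection buffer, then after 15 min with 500 uM ATP at 22 °C, for five cycles separated by NaOH stripping and re-annealing. The fluorescence ratio, averaged per switch-domain sequence, is each cluster's summed target-cycle Cy3 intensity over its summed buffer-cycle Cy3 intensity.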
# 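Further: ATP exposure 15 min at 22 °C before imaging.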
row,Sequence,switch fluorescence ratio
1,TTCGGGTGTG,0.999 ± 0.025
2,AGAGCGGCAA,2.81 ± 2.4
3,CGCCTAGTCG,1.02 ± 0.074
4,TGTTTATGTT,0.9975 ± 0.0064
5,TGGGACGGGG,0.984 ± 0.025
6,CTGGGGGCAG,1.036 ± 0.0073
7,AACGAGAAGC,0.9895 ± 0.004
8,TGATAGTGAT,0.988 ± 0.024
9,AGTCTGGTGC,1.04 ± 0.032
10,GGCTTATTGG,0.969 ± 0.016
11,CAGGTCTTGG,1.01 ± 0.03
12,TTTAAGACGA,1.02 ± 0.014
13,GAGTAAGATT,1.02 ± 0.025
14,TAACGGACTA,1.29 ± 0.023
15,TGTGTATGGG,1.19 ± 0.28
16,CCTTGACGGG,1.18 ± 0.17
17,GAAGGGCGGC,1.01 ± 0.024
18,TTTCAGAAAT,1.91 ± 1.6
19,GAGTGTGGGC,1.01 ± 0.099
20,AAGGCTAATT,0.979 ± 0.033
21,AGGCGAGTTA,0.9937 ± 0.0054
22,AACGTGCCTG,0.979 ± 0.077
23,GAGTACCGAA,0.969 ± 0.031

row,Sequence,switch fluorescence ratio
1,CATGGTTCGT,0.975 ± 0.025
2,GATTGGTGGC,1.04 ± 0.049
3,CCGGTTAGG,0.998 ± 0.045
4,TGAGGGCATT,1 ± 0.012
5,ATGTTATACT,1.02 ± 0.028
6,GAGTTTAGCG,0.982 ± 0.025
7,TGGTTCCAAA,0.971 ± 0.008
8,AAAGGGGACA,1.02 ± 0.054
9,ACAGGTCATT,1.01 ± 0.034
10,GGTTTCCGGG,1.01 ± 0.035
11,TTATTGGGCT,1.01 ± 0.013
12,TCCCATTTGG,1.03 ± 0.072
13,GGCCTTCGGG,0.972 ± 0.053
14,CAACTGCATA,1.98 ± 0.063
15,GACCAGGGAT,1.088 ± 0.0031
16,TATCGGATGG,1.0207 ± 0.00094
17,CTATAAGGG,0.985 ± 0.031
18,TAAGGAGGAT,1 ± 0.017
19,TTAGAGAGCG,1.018 ± 0.0096
20,ATTCGTATAT,0.969 ± 0.051
21,TTGGTGGTCC,0.999 ± 0.012
22,CGGTCTATAG,1.02 ± 0.053
23,GATGTGGGTA,0.992 ± 0.045

row,Sequence,switch fluorescence ratio
1,TAGTTTTTAG,0.981 ± 0.018
2,CGGATATAAG,1.01 ± 0.013
3,ATGGTAGTAA,1.01 ± 0.024
4,CCTCATCTTG,1.018 ± 0.0048
5,AAATAATTGC,1.01 ± 0.038
6,TGGGGGTGCA,1.01 ± 0.035
7,TTTTGACGTG,0.991 ± 0.013
8,CTGGGAGGCA,0.9871 ± 0.0098
9,GCGCGTAGGC,1 ± 0.021
10,ACCAATATAT,0.996 ± 0.033
11,TTGTATTTTT,0.98 ± 0.033
12,TGGTTACGTT,0.983 ± 0.018
13,GGAGGTTAAC,1.012 ± 0.0091
14,AGTGTTGTGG,0.9904 ± 0.0021
15,AAAACGGCTC,1.01 ± 0.0097
16,GGGGGATGCC,1.15 ± 0.22
17,TTTTTTGCAG,0.987 ± 0.029
18,AAGTAATGGG,0.961 ± 0.041
19,CGCACCTGTA,1.04 ± 0.037
20,GAGCATGGGA,1.02 ± 0.012
21,CGTGTTGGTA,0.987 ± 0.013
22,GACGGTAACT,1.14 ± 0.059
23,AACGGTTGCG,0.965 ± 0.016

row,Sequence,switch fluorescence ratio
1,TTTAAAACGG,1.01 ± 0.06
2,TACTTTCGTA,0.983 ± 0.011
3,AGGTAACTGT,1.01 ± 0.051
4,AGGGAGGTTA,0.972 ± 0.06
5,GGGTGAGGCA,0.9988 ± 0.0086
6,CGTGGGGTTT,0.989 ± 0.022
7,GGGATTAGTC,1.05 ± 0.088
8,AGTAGACGAC,1.03 ± 0.042
9,TAGATGCCAG,1.07 ± 0.039
10,TACGAATATT,1.025 ± 0.0046
11,AAACAGCTCA,0.994 ± 0.027
12,GAAATGTTAG,0.966 ± 0.025
13,CAGGTTGGTT,1 ± 0.027
14,TCAGTTGTAT,0.979 ± 0.011
15,TTGGAGTGGT,1.03 ± 0.013
16,AAGTCATTTG,1.017 ± 0.0088
17,CGTGTAGTTT,1.01 ± 0.036
18,AAAGAGGGTA,0.963 ± 0.055
19,TTTTTTGTGT,0.991 ± 0.03
20,AAGGAGCTTG,0.9735 ± 0.0038
21,TGCCCGGACA,1.01 ± 0.027
22,ATGACTTGGG,0.96 ± 0.011
23,TTATCCGGCG,0.986 ± 0.056

row,Sequence,switch fluorescence ratio
1,AGCTTTTGGG,0.979 ± 0.071
2,TTACCCTGGG,1.07 ± 0.074
3,ATATTAGGGG,1.01 ± 0.032
4,AAGCGTTTTT,1.018 ± 0.0045
5,GGAAATTTGT,1.008 ± 0.0044
6,GGGACCGAAT,1.004 ± 0.0056
7,TAAGTAAGGG,1 ± 0.025
8,CATTAGGGGT,0.978 ± 0.012
9,GCGGGTGGGG,1.05 ± 0.029
10,AATGACGTGT,1 ± 0.052
11,GCTTGTTACG,0.98379 ± 0.00012
12,CGAGTTAAAA,1.002 ± 0.0069
13,ATAAAAAGGG,1 ± 0.029
14,AAGTTAAAA,1.04 ± 0.092
15,TTTACTCGCA,1.3 ± 0.12
16,AAGAGCCGCG,1.03 ± 0.045
17,CGTATTTGTA,1.01 ± 0.028
18,AGGGGTTAGC,0.974 ± 0.05
19,CGGGAATCGA,1 ± 0.012
20,ATAAATGTTA,0.999 ± 0.011
21,CGTACTCGTA,1.01 ± 0.019
22,ACTTGCCTGT,1.005 ± 0.01
23,GGAATTGATG,1.04 ± 0.046

row,Sequence,switch fluorescence ratio
1,TTTTGGGTGC,1.08 ± 0.089
2,GTTAGGTTGG,0.9811 ± 0.007
3,AGTGGGGGAG,1.002 ± 0.0087
4,ATAGGGGCAG,0.996 ± 0.03
5,GGTTATTCGG,0.993 ± 0.053
6,CATGTTTAGG,0.986 ± 0.017
7,ACTGAGCCTG,1.056 ± 0.0083
8,AGGTCTTTCG,1.002 ± 0.003
9,GATGAAGGTG,1.28 ± 0.061
10,CAGTTCTGTA,1.01 ± 0.038
11,TTGTTCATAC,1.27 ± 0.37
12,ACAGTCTCTG,1.03 ± 0.018
13,GTTTTTCGT,1 ± 0.062
14,AATGGGTACT,1 ± 0.015
15,GTGTCTAAAT,0.989 ± 0.011
16,GAGTCTGTCC,1.019 ± 0.0035
17,AGATCGTGGG,1.04 ± 0.015
18,TGGTAGGTGG,1.017 ± 0.0049
19,GAAAGGGGTA,1.01 ± 0.046
20,GCACACAAAA,1.05 ± 0.012
21,CGGGGTGTTT,1.012 ± 0.0055
22,CTAGTTGGTT,0.971 ± 0.028
23,TTGCTACGGA,1.04 ± 0.013

row,Sequence,switch fluorescence ratio
1,CGGGCTTTGG,1.01 ± 0.035
2,CCGTAGTGGT,2.9 ± 1.4
3,ATCGAGGGGT,0.955 ± 0.037
4,AATTTTTAAA,0.968 ± 0.038
5,CGGGGCGGTG,1.02 ± 0.037
6,GAGTGCTAAA,1.01 ± 0.0053
7,GGCATCGCCG,0.954 ± 0.013
8,TATGGGCAGC,1.03 ± 0.018
9,CGGGGCTATG,0.997 ± 0.0053
10,TGCAACCTTG,1.0397 ± 0.0007
11,AAGCAGGGGA,1.05 ± 0.032
12,CCAATGTTTT,0.98 ± 0.016
13,TCTTCGTTTT,1.23 ± 0.32
14,ACGGGGTATT,0.996 ± 0.028
15,TAGAGTTGGG,0.986 ± 0.015
16,TACTGTATTG,1.03 ± 0.13
17,GCAAGGGTGG,1 ± 0.038
18,GATCGACTTT,0.958 ± 0.012
19,GTTTTTGGGG,0.987 ± 0.055
